Positions count from the first letter of the chain named.
B1: TRIDENT-2 (other)
chain 1: DIQMTQSPSTLSASVGDRVTITCRASQSVGYMHWYQQKPGKAPKLLIYDTSKLASGVPSRFSGSGSGTEFTLTISSLQPDDFATYYCFQGSGYPFTFGGGTKLEIKGGGSGGGGEVKLDETGGGLVQPGRPMKLSCVASGFTFSDYWMNWVRQSPEKGLEWVAQIRNKPYNYETYYSDSVKGRFTISRDDSKSSVYLQMNNLRVEDMGIYYCTGSYYGMDYWGQGTSVTVSSASTKGEVAACEKEVAALEKEVAALEKEVAALEKGGGDKTHTCPPCPAPEAAGGPSVFLFPPKPKDTLMISRTPEVTCVVVDVSHEDPEVKFNWYVDGVEVHNAKTKPREEQYNSTYRVVSVLTVLHQDWLNGKEYKCKVSNKALPAPIEKTISKAKGQPREPQVYTLPPSREEMTKNQVSLWCLVKGFYPSDIAVEWESNGQPENNYKTTPPVLDSDGSFFLYSKLTVDKSRWQQGNVFSCSVMHEALHNHYTQKSLSLSPGK
chain 2: DVVMTQTPFSLPVSLGDQASISCRSSQSLVHSNGNTYLRWYLQKPGQSPKVLIYKVSNRFSGVPDRFSGSGSGTDFTLKISRVEAEDLGVYFCSQSTHVPWTFGGGTKLEIKGGGSGGGGQVTLRESGPALVKPTQTLTLTCTFSGFSLSTSGMSVGWIRQPPGKALEWLADIWWDDKKDYNPSLKSRLTISKDTSKNQVVLKVTNMDPADTATYYCARSMITNWYFDVWGAGTTVTVSSASTKGKVAACKEKVAALKEKVAALKEKVAALKE
heavy: QVQLVQSGAEVKKPGASVKVSCKASGYTFTNYGMNWVRQAPGQGLEWMGWINTNIGEPTYTEEFKGRVTMTRDTSISTAYMELSRLRSDDTAVYYCARDDGYGNRVSYWGQGTLVTVSSASTKGPSVFPLAPSSKSTSGGTAALGCLVKDYFPEPVTVSWNSGALTSGVHTFPAVLQSSGLYSLSSVVTVPSSSLGTQTYICNVNHKPSNTKVDKRVEPKSCDKTHTCPPCPAPEAAGGPSVFLFPPKPKDTLMISRTPEVTCVVVDVSHEDPEVKFNWYVDGVEVHNAKTKPREEQYNSTYRVVSVLTVLHQDWLNGKEYKCKVSNKALPAPIEKTISKAKGQPREPQVYTLPPSREEMTKNQVSLSCAVKGFYPSDIAVEWESNGQPENNYKTTPPVLDSDGSFFLVSKLTVDKSRWQQGNVFSCSVMHEALHNRYTQKSLSLSPGK
light: DIQMTQSPSSLSASVGDRVTITCKASQDISNYLSWFQQKPGKAPKTLIYRANRLQSGVPSRFSGSGSGTDFTLTISSLQPEDFATYYCLQHDEFPWTFGQGTKLEIKRTVAAPSVFIFPPSDEQLKSGTASVVCLLNNFYPREAKVQWKVDNALQSGNSQESVTEQDSKDSTYSLSSTLTLSKADYEKHKVYACEVTHQGLSSPVTKSFNRGEC
notes: also called RSV×FITC×HER2 control molecule; TA×FITC×RSV control molecule
B2: DART-C (bispecific antibody)
chain 1: not shown
chain 2: DIQMTQSPSSLSASVGDRVTITCKASQDISNYLSWFQQKPGKAPKTLIYRANRLQSGVPSRFSGSGSGTDFTLTISSLQPEDFATYYCLQHDEFPWTFGQGTKLEIKGGGSGGGGQVQLVQSGAEVKKPGASVKVSCKASGYTFTSYWINWVKQAPGQGLEWIGNIYPSDSYTNYNQKFKDKATITADKSTSTAYMELSSLRSEDTAVYYCTRDYGSSYSFDYWGQGTTVTVSSGGCGGGKVAACKEKVAALKEKVAALKEKVAALKE
B3: DART-E (bispecific antibody, human IgG1, kappa, L234A L235A)
heavy: QVQLQQPGAELVRPGASVKLSCKASGYTFTSYWINWVKQRPGQGLEWIGNIYPSDSYTNYNQKFKDKATLTVDKSSSTAYMQLSSPTSEDSAVYYCTRDYGSSYSFDYWGQGTTLTVSSASTKGPSVFPLAPSSKSTSGGTAALGCLVKDYFPEPVTVSWNSGALTSGVHTFPAVLQSSGLYSLSSVVTVPSSSLGTQTYICNVNHKPSNTKVDKRVEPKSCDKTHTCPPCPAPEAAGGPSVFLFPPKPKDTLMISRTPEVTCVVVDVSHEDPEVKFNWYVDGVEVHNAKTKPREEQYNSTYRVVSVLTVLHQDWLNGKEYKCKVSNKALPAPIEKTISKAKGQPREPQVYTLPPSREEMTKNQVSLSCAVKGFYPSDIAVEWESNGQPENNYKTTPPVLDSDGSFFLVSKLTVDKSRWQQGNVFSCSVMHEALHNRYTQKSLSLSPGK
light: DIQMTQTTSSLSASLGDRVTISCRPSQDISNYLNWYQQKPDGTVKLLIYYTSRLRSGVPSRFSGSGSGTDYSLTISNLEQEDIATYFCQQGDTLPYTFGGGTKLEIKRTVAAPSVFIFPPSDEQLKSGTASVVCLLNNFYPREAKVQWKVDNALQSGNSQESVTEQDSKDSTYSLSSTLTLSKADYEKHKVYACEVTHQGLSSPVTKSFNRGEC
chain 1: QVQLQQPGAELVRPGASVKLSCKASGYTFTSYWINWVKQRPGQGLEWIGNIYPSDSYTNYNQKFKDKATLTVDKSSSTAYMQLSSPTSEDSAVYYCTRDYGSSYSFDYWGQGTTLTVSSASTKGPSVFPLAPSSKSTSGGTAALGCLVKDYFPEPVTVSWNSGALTSGVHTFPAVLQSSGLYSLSSVVTVPSSSLGTQTYICNVNHKPSNTKVDKRVEPKSCDKTHTCPPCPAPEAAGGPSVFLFPPKPKDTLMISRTPEVTCVVVDVSHEDPEVKFNWYVDGVEVHNAKTKPREEQYNSTYRVVSVLTVLHQDWLNGKEYKCKVSNKALPAPIEKTISKAKGQPREPQVYTLPPSREEMTKNQVSLWCLVKGFYPSDIAVEWESNGQPENNYKTTPPVLDSDGSFFLYSKLTVDKSRWQQGNVFSCSVMHEALHNHYTQKSLSLSPGGGGSGGGSGGGDIQMTQSPSSLSASVGDRVTITCKASQDISNYLSWFQQKPGKAPKTLIYRANRLQSGVPSRFSGSGSGTDFTLTISSLQPEDFATYYCLQHDEFPWTFGQGTKLEIKGGGSGGGGQVQLVQSGAEVKKPGASVKVSCKASGYTFTNYGMNWVRQAPGQGLEWMGWINTNIGEPTYTEEFKGRVTMTRDTSISTAYMELSRLRSDDTAVYYCARDDGYGNRVSYWGQGTLVTVSSGGCGGGEVAALEKEVAALEKEVAALEKEVAALEK
chain 2: DIQMTQSPSSLSASVGDRVTITCKASQDISNYLSWFQQKPGKAPKTLIYRANRLQSGVPSRFSGSGSGTDFTLTISSLQPEDFATYYCLQHDEFPWTFGQGTKLEIKGGGSGGGGQVQLVQSGAEVKKPGASVKVSCKASGYTFTNYGMNWVRQAPGQGLEWMGWINTNIGEPTYTEEFKGRVTMTRDTSISTAYMELSRLRSDDTAVYYCARDDGYGNRVSYWGQGTLVTVSSGGCGGGKVAALKEKVAALKEKVAALKEKVAALKE
B4: HER2 MAB-1 (antibody, V domains shown)
VH: EVQLQESGPELKKPGETVKISCKASGYTFTNYGMNWVKQAPGKGLKWMGWINTNIGEPTYTEEFKGRFAFSLGTSASTAFLQINNLKNEDTATYFCARDDGYGNRVSYWGQGTLVTVSA
VL: DILMTQSPLSMYTSLGERVTITCKASQDINSYLSWFQQKPGKSPKTLIYRANRLVDGVPSRFSGSGSGQDYSLTISSLEYEDMGIYYCLQHDEFPWTFGGGTKLEIK
notes: also called 8H11
B5: hHER2 MAB-1 (1.2) (antibody, V domains shown)
VH: QVQLVQSGAEVKKPGASVKVSCKASGYTFTNYGMNWVRQAPGQGLEWMGWINTNIGEPTYTEEFKGRVTMTRDTSISTAYMELSRLRSDDTAVYYCARDDGYGNRVSYWGQGTLVTVSS
VL: DIQMTQSPSSLSASVGDRVTITCKASQDINTYLSWFQQKPGKAPKTLIYRANRLVEGVPSRFSGSGSGTDFTLTISSLQPEDFATYYCLQHDEFPWTFGQGTKLEIK
B6: hHER2 MAB-1 (1.3) (antibody, V domains shown)
VH: B5 VH
VL: B5 VL with N30S, T31N, V55Q, E56S

Columns and labels:
[1] = biological target: T1, HER2/neu on the surface of target cells (N87, JIMT-1, MCF-7, MDA-MB231) (UniProt P04626 23-1255, limits assumed); experiment: flow cytometry on N87 cells, anti-hFc APC MFI
T1 construct: whole, on cells

[2] = biological target: T1, HER2/neu on the surface of target cells …; experiment: flow cytometry on MCF-7 cells, anti-hFc APC MFI
[3] = biological target: T1, HER2/neu on the surface of target cells …; experiment: flow cytometry on JIMT-1 cells, anti-hFc APC MFI
[4] = biological target: T1, HER2/neu on the surface of target cells …; experiment: flow cytometry on N87 gastric cancer cells, anti-hFc APC MFI
[5] = biological target: T2, CD137 on the surface of cells (activated human T cells; engineered CHO cells) (human, UniProt Q07011 24-255); experiment: flow cytometry on activated pan T cells gated CD8, anti-hFc APC MFI
T2 construct: whole, on cells; also called human CD137; cell surface expressed CD137
T2 sequence (Q07011 24-255, change not shown): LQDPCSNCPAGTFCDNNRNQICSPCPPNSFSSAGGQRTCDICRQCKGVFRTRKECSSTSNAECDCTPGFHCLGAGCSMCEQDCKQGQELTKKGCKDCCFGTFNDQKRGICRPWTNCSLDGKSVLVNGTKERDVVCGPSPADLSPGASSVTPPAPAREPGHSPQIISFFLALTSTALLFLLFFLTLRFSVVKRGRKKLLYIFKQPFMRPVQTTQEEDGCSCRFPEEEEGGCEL

[6] = biological target: T3, extracellular portion of human HER2 fused to a histidine-containing peptide (human, UniProt P04626 23-652); experiment: SPR (BIACORE); antibody captured on anti-human Fc; huHER2 6.25-50 nM; 1:1 Langmuir
T3 construct: extracellular domain; also called huHER2; Human HER2/neu
Description: The humanized variants were selected to have improved binding affinity as compared to the parental murine antibody and as described may be further engineered to eliminate sequence liabilities (e.g., isomerization, deamidation sites) as described above. The binding affinity of several combinations of humanized VH and VL domains was examined by BIACORE®. Thus, an extracellular portion of human HER2 fused to a histidine-containing peptide (“huHER2”) was passed over a surface coated with immobilized antibody. Briefly, each test molecule was captured onto an F(ab)₂ goat-anti-human Fc-coated surface and then incubated in the presence of different concentrations (6.25 nM-50 nM) of huHER2. The kinetics of binding were determined via BIACORE® analysis binding (normalized 1:1 Langmuir binding model).

Row | Binder | EC50 (read off the curve) [5] [nM] | Kd [6] [nM] | koff [6] [s⁻¹] | kon [6] [M⁻¹ s⁻¹] | other results
1 | B1 | – | – | – | – | EC50 (read off the curve) [1]: ~1 nM; EC50 (read off the curve) [2]: ~0.2 nM; EC50 (read off the curve) [3]: ~0.7 nM
2 | B2 | ~0.1 | – | – | – | EC50 (read off the curve) [4]: ~0.5 nM
3 | B3 | ~0.1 | – | – | – | binding result [4]: binds
4 | B4 | – | 1.27 | 0.000654 | 510000 | –
5 | B5 | – | 0.45 | 0.00028 | 620000 | –
6 | B6 | – | 0.36 | 0.000223 | 618000 | –

From patent US20220406376A1 (MacroGenics, published 2022)
